Data taken from article PMC3078326.

Legend:
PU.1 Ets domain [1] = target: T1, PU.1 Ets domain (UniProt P17947 170-253); experiment: competition
PU.1 Ets domain [2] = target: T1, PU.1 Ets domain; experiment: EMSA
Elk-1 Ets domain = target: T2, Elk-1 Ets domain (UniProt P19419 5-86); experiment: EMSA
T2 sequence: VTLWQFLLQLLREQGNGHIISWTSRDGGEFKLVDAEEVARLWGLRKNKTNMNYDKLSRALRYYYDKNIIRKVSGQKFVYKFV

| Binder | binding result (PU.1 Ets domain [1]) | binding result (PU.1 Ets domain [2]) | binding result (Elk-1 Ets domain) |
| --- | --- | --- | --- |
| IR5 MT2 (dsDNA) DNA 1: CTCACGGCCGCGTCCCGCCGC DNA 2: GCGGCGGGACGCGGCCGTGAG | no binding | – | – |
| IR5 WT (dsDNA) DNA 1: CTCACTTCCGCGTCCCGCCGC DNA 2: GCGGCGGGACGCGGAAGTGAG | – | binds | no binding |
| IR5 MT1 (dsDNA) DNA 1: CTCACTTTTGCGTCCCGCCGC DNA 2: GCGGCGGGACGCAAAAGTGAG | no binding | – | – |
